Where two headings read alike, the source gives them in different places.
Tests used:
[1] = biological target: purified H5N1 HA (influenza A virus H5N1)
[2] = biological target: purified H5N1 HA (influenza A virus H5N1); remark: listed apart in the source

Row | Binder | Kd [1] [nM] | Kd [2] [nM]
1 | BF1-1 (antibody, V domains shown) VH: EVQLVQSGPGLVKPSETLSLTCTVSGSSMRTHYWTWIRQPPGKGLEWIGNIYYSGSTDYNPSLKSRVTISVDTSKNQFSLKLSSVTAADTAVYFCARTKHFDILPGGVFDMWGRGTTVTVSS VL: SYELTQLPSVSVSPGQTATITCSGDRLGDKYACWYQQKPGQSPVLVIFQDTKRPSGIPERFSGSNSGNTATLTISGTQAMDEADYYCQAWDSNIGVFGGGTKLTVL | 20.3 | 
2 | BF1-10 (antibody, V domains shown) VH: QVQLQESGPGLVKPSQTLSLTCAVSGGSISSRGYYWSWIRQPPGKGLEWIGYIFYTGGTDYNPSLKSRITISRDTPKNQISLNLSSVTAADTAVYYCARVVDGSSGYHHYYFDYWGQGTLVTVSS VL: DIQMTQSPASLAVSLGQRATISYRASKSVSTSGYSYMHWNQQKPGQPPRLLIYLVSNLESGVPARFSGSGSGTDFTLNIHPVEEEDAATYYCQHIRELTRSEGGPSWRSN | 10.8 | 10 to 50
3 | BF1-19 (antibody, V domains shown) VH: QVQLQESGPGLVKPSETLSLTCTVSGSSMRTHYWTWIRQPPGKGLEWIGNIYYSGSTDYNPSLKSRVTISVDTSKNQFSLKLSSVTAADTAVYFCARTKHFDILPGGVFDMWGRGTTVSS VL: DIVMTQSPASLAVSLGQRATISYRASKSVSTSGYSYMHWNQQKPGQPPRLLIYLVSNLESGVPARFSGSGSGTDFTLNIHPVEEEDAATYYCQHIRELTRSEGGPKWISN | 48.2 | 10 to 50

From patent US20090041679A1
